The record followed here is patent US20160074509A1.

In this experiment the target is OVA323-339 in the context of MHC class II (I-A^b) (mouse; chicken) (UniProt P14434). Description: cell-based or functional assay.

With “T cell receptor of OT-II transgenic CD4+ T cells (TCR)”, the proliferation of CFSE-labeled OT-II cells transferred into the footpad one week after immunization with OVA-KFE8D nanofibers (shift in CFSE intensity) (% of transferred cells) is 60 and the proliferation of adoptively transferred CFSE-labeled OT-II cells in mice immunized with OVA-Q11 or OVA in CFA (shift in CFSE intensity) (% of transferred cells) worked out at 95.
